Where two headings read alike, the source gives them in different places.
How the values were obtained:
IL-23 p40-p19-His = biological target: T1, IL-23 p40-p19-His (human); assay: ELISA on IL-23 p40-p19-His
T1 construct: Single-chain fusion coated on the IL-23 ELISA plates; also called p40:p19-6×HIS
T1 chain: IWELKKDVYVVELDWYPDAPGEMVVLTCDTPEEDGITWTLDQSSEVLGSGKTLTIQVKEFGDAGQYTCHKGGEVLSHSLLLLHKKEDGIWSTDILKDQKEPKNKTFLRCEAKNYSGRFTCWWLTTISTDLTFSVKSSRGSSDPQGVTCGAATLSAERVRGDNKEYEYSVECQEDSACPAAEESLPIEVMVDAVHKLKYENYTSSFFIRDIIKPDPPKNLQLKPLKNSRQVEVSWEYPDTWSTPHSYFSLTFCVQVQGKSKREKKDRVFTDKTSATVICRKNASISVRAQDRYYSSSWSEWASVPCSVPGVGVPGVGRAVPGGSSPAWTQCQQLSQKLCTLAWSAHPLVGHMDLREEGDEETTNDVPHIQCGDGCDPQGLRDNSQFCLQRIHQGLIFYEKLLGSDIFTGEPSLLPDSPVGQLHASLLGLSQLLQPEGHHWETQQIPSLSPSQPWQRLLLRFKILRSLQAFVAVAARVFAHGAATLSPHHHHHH

[1] = biological target: T2, human dimeric IL-23 (eBiosciences 34-8239) (human, UniProt P29460 23-328; Q9NPF7 20-189); assay: cell-based or functional assay
T2 sequence (looked up) 1: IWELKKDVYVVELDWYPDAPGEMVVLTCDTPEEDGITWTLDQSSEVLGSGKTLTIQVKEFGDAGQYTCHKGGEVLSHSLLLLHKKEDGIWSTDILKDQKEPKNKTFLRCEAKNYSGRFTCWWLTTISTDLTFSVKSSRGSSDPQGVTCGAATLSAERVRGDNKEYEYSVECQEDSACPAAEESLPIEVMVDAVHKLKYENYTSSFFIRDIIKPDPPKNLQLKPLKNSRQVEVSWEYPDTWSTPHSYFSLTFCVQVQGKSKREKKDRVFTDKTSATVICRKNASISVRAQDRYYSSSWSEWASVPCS
T2 sequence (looked up) 2: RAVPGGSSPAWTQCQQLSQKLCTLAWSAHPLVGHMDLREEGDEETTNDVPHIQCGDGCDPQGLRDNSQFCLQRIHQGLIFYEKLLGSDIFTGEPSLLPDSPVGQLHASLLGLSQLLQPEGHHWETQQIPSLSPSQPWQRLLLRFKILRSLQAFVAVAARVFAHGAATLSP

[2] = biological target: T2, human dimeric IL-23 (eBiosciences …); assay: cell-based or functional assay; remark: listed apart in the source
human IL-12 [3] = biological target: T3, human IL-12 (human, UniProt P29459 23-219; P29460 23-328); assay: IL-12 binding assay of the selection not described
T3 construct: Bioassay used Prospec-Tany Cyt-362
T3 sequence (looked up) 1: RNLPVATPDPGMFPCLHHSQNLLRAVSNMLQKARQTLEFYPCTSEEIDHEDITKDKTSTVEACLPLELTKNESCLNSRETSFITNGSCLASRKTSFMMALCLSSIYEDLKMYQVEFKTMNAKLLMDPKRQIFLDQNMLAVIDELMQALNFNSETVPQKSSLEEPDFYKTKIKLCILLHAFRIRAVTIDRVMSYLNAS
T3 sequence (looked up) 2: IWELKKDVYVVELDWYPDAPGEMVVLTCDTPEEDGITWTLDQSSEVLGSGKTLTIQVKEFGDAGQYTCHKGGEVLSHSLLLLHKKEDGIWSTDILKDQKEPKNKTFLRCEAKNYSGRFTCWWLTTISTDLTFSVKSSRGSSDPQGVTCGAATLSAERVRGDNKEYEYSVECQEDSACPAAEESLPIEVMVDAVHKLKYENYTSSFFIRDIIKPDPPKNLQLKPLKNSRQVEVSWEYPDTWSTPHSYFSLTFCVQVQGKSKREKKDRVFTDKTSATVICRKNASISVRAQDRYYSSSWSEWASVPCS

[4] = biological target: T4, primate IL-23 (p40:p19 fusion, 6×HIS) (primate); assay: cell-based or functional assay
T4 chain: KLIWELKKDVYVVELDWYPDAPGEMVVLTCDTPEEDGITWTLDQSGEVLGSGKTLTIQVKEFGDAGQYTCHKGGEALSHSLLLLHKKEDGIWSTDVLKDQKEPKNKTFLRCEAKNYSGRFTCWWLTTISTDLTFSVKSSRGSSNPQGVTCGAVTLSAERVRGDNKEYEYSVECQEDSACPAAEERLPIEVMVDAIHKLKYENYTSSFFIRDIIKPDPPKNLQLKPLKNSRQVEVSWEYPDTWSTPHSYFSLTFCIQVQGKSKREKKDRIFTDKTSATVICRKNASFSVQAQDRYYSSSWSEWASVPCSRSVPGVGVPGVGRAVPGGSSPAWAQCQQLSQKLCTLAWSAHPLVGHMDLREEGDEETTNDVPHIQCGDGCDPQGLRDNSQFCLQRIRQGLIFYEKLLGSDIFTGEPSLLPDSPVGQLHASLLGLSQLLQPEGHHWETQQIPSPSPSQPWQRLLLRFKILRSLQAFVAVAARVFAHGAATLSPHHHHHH

[5] = biological target: T2, human dimeric IL-23 (eBiosciences …); assay: SPR; format for the anti-IL-23 scFv alone not described
monkey IL-12 (macaque) [6] = biological target: T5, monkey IL-12 (macaque) (macaque, UniProt P48091 23-219; P48095 23-328); assay: cell-based or functional assay
T5 sequence (looked up) 1: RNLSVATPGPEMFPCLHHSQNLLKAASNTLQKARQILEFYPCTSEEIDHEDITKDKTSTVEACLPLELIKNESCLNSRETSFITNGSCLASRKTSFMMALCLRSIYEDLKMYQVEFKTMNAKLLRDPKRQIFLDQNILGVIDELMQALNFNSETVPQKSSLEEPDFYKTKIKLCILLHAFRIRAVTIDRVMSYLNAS
T5 sequence (looked up) 2: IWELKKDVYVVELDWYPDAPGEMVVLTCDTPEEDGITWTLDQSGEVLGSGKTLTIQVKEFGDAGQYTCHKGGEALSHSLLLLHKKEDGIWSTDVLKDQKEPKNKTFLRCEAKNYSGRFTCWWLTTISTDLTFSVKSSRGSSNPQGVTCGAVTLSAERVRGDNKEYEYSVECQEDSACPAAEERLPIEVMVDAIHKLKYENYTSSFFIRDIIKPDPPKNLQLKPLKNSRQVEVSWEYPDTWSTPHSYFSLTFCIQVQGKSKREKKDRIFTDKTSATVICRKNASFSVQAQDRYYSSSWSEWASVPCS

monkey IL-12 (macaque) [7] = biological target: T5, monkey IL-12 (macaque); assay: cell-based or functional assay; remark: listed apart in the source
[8] = biological target: T2, human dimeric IL-23 (eBiosciences …); assay: cell-based or functional assay; remark: listed apart in the source
human IL-12 [9] = biological target: T3, human IL-12; assay: cell-based or functional assay
human IL-6 [10] = biological target: T6, human IL-6 (human, UniProt P05231 30-212); assay: cell-based or functional assay
human IL-6 [11] = biological target: T6, human IL-6; assay: SPR (SensiQ Pioneer), mAb captured on protein G, IL-6 as analyte (3×FLAG-IL-6 or IL-6 CYT-213, 1-100 nM), 25 C, 1:1 model
Method: Equilibrium constants for rabbit human chimeric mAbs were determined by binding the mAb to the protein G coated chip followed by binding of each analyte (IL-6 or IL-23) to its respective mAb. In order to minimize mass transfer effects, the surface densities of the mAbs for each analyte were adjusted so that as analyte binding approached saturation its corresponding RU fell between 200 and 300. […] For each binding and dissociation cycle the chip surface was regenerated with 15 uL of 20 mM NaOH (5671-02, Mallinckrodt Baker, Philliphsburg, N.J.). The assay temperature was maintained at 25° C. with an analyte flow rate of 50 μL/min and included a 2 minute association phase and 10-30 minute dissociation phase. The on/off rates (kₐ/kd) and dissociation constants (KD) were determined using the format described above along with pseudo-first-order 1:1 interaction model software (Qdat, ICx Nomadics, Stillwater, Okla.).

Primate IL-6 = biological target: T7, Primate IL-6 (Macaca mulatta, UniProt P51494); assay: cell-based or functional assay
T7 sequence (cytokine, looked up): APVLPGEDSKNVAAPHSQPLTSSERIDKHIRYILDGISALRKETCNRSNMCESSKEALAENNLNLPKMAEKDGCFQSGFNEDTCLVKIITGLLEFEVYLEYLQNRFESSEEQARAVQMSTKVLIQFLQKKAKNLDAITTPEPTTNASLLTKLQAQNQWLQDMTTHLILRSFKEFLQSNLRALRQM

human IL-12 [12] = biological target: T3, human IL-12; assay: ELISA, human IL-12 coated on the plate; antibody concentration not given [Binding to Human IL-12]

B1: 1H1 chimeric mAb (antibody, V domains shown)
VH: QELKESGGRLVTPGGSLTLSCTASGLTLGSYSMTWVRQAPGKGLEWMGVIGVGGTLNYASWAQGRFTISKPSSTTVDLKMTSLTTEDTATYFCARGTYSGDSIWGPGTLVTVSS
VL: DVVMTQTPSSTSAAVGGTVTIKCQASQSISSWLAWYQQKPGQPPKPLIVRASILTSGVPSRFKGSRSGTEYTLTISGVQREDAATYYCLGGDGHVSNFGGGTELEILR
notes: Rabbit/human chimeric IgG (human IgG1, kappa); HEK293; also called mAb 1H1
binding result (IL-23 p40-p19-His): binds
EC50: concentration necessary to inhibit bioactivity of 50 pg/ml of IL-6 [1]: 0.603 ng/mL
IC50 (read off the curve) (IL-17 from mouse splenocytes, OD450) [2]: ~1 ng/mL
binding result (human IL-12 [3]): binds
IC50 (read off the curve) (IL-17 from mouse splenocytes, OD450) [4]: ~1 ng/mL

B2: 31A12 humanized scFv (mammalian expressed) (scFv)
scFv: DIQLTQSPSFLSASVGDRVTITCQASEDIESYLAWYQQKPGKAPKLLIYSASTLTSGVPSRFSGSGSGTEFTLTISSLQPEDFATYYCLGADDTTTVFGGGTKVEIKGGGGSGGGGSGGGGSGGGGSEVQLVESGGGLVQPGGSLRLSCTASGFSLSSYWMTWVRQAPGKGLEWVGTIATSSTYYASWAKGRFTISRDNSKNTLYLQMNSLRAEDTAVYYCARGLTTDYDLDLWGQGTLVTVSSGPPPPHHHHHH
notes: also called Anti IL-23 31A12 scFv; 31A12 scFv
Kd [5]: 0.092 nM
koff [5]: 7.11e-05 s⁻¹
kon [5]: 773000 M⁻¹ s⁻¹
IC50 (read off the curve) (monkey IL-12 (macaque) [6]): ~10 ng/mL
IC50 (read off the curve) (interferon-gamma from NK92 cells, OD450) (monkey IL-12 (macaque) [7]): ~10 ng/mL
EC50, inhibition of IL-23 induced IL-17 secretion by mouse spleen cells [8]: 1.37 ng/mL

B3: 4F3 chimeric mAb (antibody, V domains shown)
VH: QSVEESGGRLVTPGTPLTLTCAVSGFSLSGYTMIWVRQAPGEGLEWIGIISSSGNTYYASWVKGRFTISKTSTTVDLKMISPTTEDTATYFCARGSGAYISDYFNVWGPGTLVTVSS
VL: FELTQTPSSVEAAVEGTVTIKCQASQSIDSWLSWYQQKPGQPPKLLIYSASKLAPGVPSRFSGSGSGTQFTLTIGDLECADAATYYCQSYYDVNAGYGFGGGTEVVVVR
notes: Rabbit/human chimeric IgG (human IgG1, kappa); HEK293; also called mAb 4F3
binding result (IL-23 p40-p19-His): binds
EC50: concentration necessary to inhibit bioactivity of 50 pg/ml of IL-6 [1]: 2.34 ng/mL
IC50 (read off the curve) (interferon-gamma from NK92 cells, OD450) (human IL-12 [9]): ~2 ng/mL

B4: 5C5 chimeric mAb (antibody, V domains shown)
VH: QSVEESGGRLVTPGTPLTLTCTVSGFSLSSYTMIWVRQAPGEGLEWIGIISAGGSAYYASWVNGRFTISKTSTTVDLKMTSPTTGDTATYFCARGSGTYTSDYFNIWGPGTLVTVSS
VL: FELTQTPSSVEAAVGGTVTIKCQASQSIDSWLAWYQQKPGQPPKLLIYSASKLATGVPSRFSGSGSGTQFTLTISDLECADAATYYCQSYYDANAGYGFGGGTKVVVVR
notes: Rabbit/human chimeric IgG (human IgG1, kappa); HEK293; also called mAb 5C5
binding result (IL-23 p40-p19-His): binds
EC50: concentration necessary to inhibit bioactivity of 50 pg/ml of IL-6 [1]: 1.91 ng/mL
IC50 (read off the curve) (interferon-gamma from NK92 cells, OD450) (human IL-12 [9]): ~0.9 ng/mL

B5: 18D4 chimeric mAb (antibody, V domains shown)
VH: QSVEESGGRLVTPGTPLTLTCTVSGFSLSSYAMTWVRQAPGKGLEWIGTSYVYSGDTWYASWVKGRFTISKTSTTVDLKITSPTTEDTATYFCARVGDYDDYGAHDVFDSWGPGTLVTVSS
VL: YDMTQTPASVEVAVGGTVTIKCQASESISSWLSWYQQKPGQRPKLLLYRASTLASGVSSRFSGSGYGTEFTLTISGVQCEDAATYYCQQGYTGGNVDNAFGGGTKVVVVR
notes: Rabbit/human chimeric IgG (human IgG1, kappa); HEK293; also called 18D4 clone
EC50, inhibition of IL-6 induced B9 cell proliferation (human IL-6 [10]): 0.054 ng/mL
Kd (human IL-6 [11]): 0.128 nM
koff (human IL-6 [11]): 8.49e-05 s⁻¹
kon (human IL-6 [11]): 666000 M⁻¹ s⁻¹
IC50 (read off the curve) (B9 proliferation, OD570-600) (Primate IL-6): ~4 ng/mL

B6: 49B7 chimeric mAb (antibody, V domains shown)
VH: QSLEESGGRLVTPGGSLTLTCTVSGIDLSDYDMSWVRQAPGKGLEWIGIVYDIGTIYYAPWAEGRFTISKTSTTVDLKMSSLTTEDTATYFCAREAPGYSDGDIWGPGTLVTVSS
VL: ALVMTQTPSSVSAAVGGTVTINCQASETVDNNKRLSWYQQKPGQPPKLLIYGAATLASGVPSRFKGSGSGAHFTLTISNVQREDAATYVCGGYKDSTDVGFGGGTELEILR
notes: Rabbit/human chimeric IgG (human IgG1, kappa); HEK293
EC50, inhibition of IL-23 induced IL-17 secretion by mouse spleen cells [1]: 0.988 ng/mL
IC50 (read off the curve) (IL-17 from mouse splenocytes, OD450) [2]: ~0.6 ng/mL
binding result (human IL-12 [12]): binds

Reference: patent publication US20160194391A1 (AstraZeneca / MedImmune, published 2016)
